Measured values as given in article PMC10247930, “The effects of novel macrocyclic chelates on the targeting properties of the ^68Ga-labeled Gastrin releasing peptide receptor antagonist RM2” (EJNMMI Research, 2023).

Test: in vivo
Set-up: species or system BALB/c nu/nu mice
Details: male, BALB/c nu/nu, mouse, iv, 2.6 MBq, total radioactivity
Method: Biodistribution. BALB/c nu/nu male mice were implanted subcutaneously with 10 million PC-3 tumor cells, freshly expanded in saline. Biodistribution studies were performed 3 to 4 weeks after tumor cell inoculation when the tumor-bearing mice reached an average mass of 20 ± 3 g. Mice were injected with ^68Ga-X-RM2 (100 µL, 2.6 MBq) into the tail vein. The animals were sacrificed at 30, 60, and 120 min post-injection. Then the organs of interest were collected and weighed, and their radioactivity content was measured in a gamma counter.

CC(C)C[C@H](NC(=O)C[C@H](O)[C@H](CC(C)C)NC(=O)[C@H](Cc1c[nH]cn1)NC(=O)CNC(=O)[C@@H](NC(=O)[C@H](C)NC(=O)[C@H](Cc1c[nH]c2ccccc12)NC(=O)[C@H](CCC(N)=O)NC(=O)[C@@H](Cc1ccccc1)NC(=O)CN1CCC(NC(=O)CCCCC2(N(CC(=O)O)CC(=O)O)CN(CC(=O)O)CCN(CC(=O)O)C2)CC1)C(C)C)C(N)=O [AAZTA^5-RM2]
tissue to tissue ratio at 0.5 h (Tumour/blood ratio): 3.53 | tissue to tissue ratio at 1 h (Tumour/blood ratio): 8.38 | tissue to tissue ratio at 2 h (Tumour/blood ratio): 15.6 | tissue to tissue ratio at 0.5 h (Tumour/bone ratio): 21.8 | tissue to tissue ratio at 1 h (Tumour/bone ratio): 36 | tissue to tissue ratio at 2 h (Tumour/bone ratio): 57.5 | tissue to tissue ratio at 0.5 h (Tumour/kidneys ratio): 1.2 | tissue to tissue ratio at 1 h (Tumour/kidneys ratio): 1.41 | tissue to tissue ratio at 2 h (Tumour/kidneys ratio): 1.31 | tissue to tissue ratio at 0.5 h (Tumour/liver ratio): 6.04 | tissue to tissue ratio at 1 h (Tumour/liver ratio): 7.55 | tissue to tissue ratio at 2 h (Tumour/liver ratio): 5.92 | tissue to tissue ratio at 0.5 h (Tumour/muscle ratio): 10.3 | tissue to tissue ratio at 1 h (Tumour/muscle ratio): 37.6 | tissue to tissue ratio at 2 h (Tumour/muscle ratio): 60.7

CC(C)C[C@H](NC(=O)C[C@H](O)[C@H](CC(C)C)NC(=O)[C@H](Cc1c[nH]cn1)NC(=O)CNC(=O)[C@@H](NC(=O)[C@H](C)NC(=O)[C@H](Cc1c[nH]c2ccccc12)NC(=O)[C@H](CCC(N)=O)NC(=O)[C@@H](Cc1ccccc1)NC(=O)CN1CCC(NC(=O)CCCCC2(N(C)CC(=O)O)CN(CC(=O)O)CCN(CC(=O)O)C2)CC1)C(C)C)C(N)=O [DATA^5m-RM2]
tissue to tissue ratio at 0.5 h (Tumour/blood ratio): 4.23 | tissue to tissue ratio at 1 h (Tumour/blood ratio): 14.6 | tissue to tissue ratio at 2 h (Tumour/blood ratio): 18.2 | tissue to tissue ratio at 0.5 h (Tumour/bone ratio): 16.2 | tissue to tissue ratio at 1 h (Tumour/bone ratio): 29.3 | tissue to tissue ratio at 2 h (Tumour/bone ratio): 50.2 | tissue to tissue ratio at 0.5 h (Tumour/kidneys ratio): 1.73 | tissue to tissue ratio at 1 h (Tumour/kidneys ratio): 2.2 | tissue to tissue ratio at 2 h (Tumour/kidneys ratio): 2.41 | tissue to tissue ratio at 0.5 h (Tumour/liver ratio): 5.86 | tissue to tissue ratio at 1 h (Tumour/liver ratio): 7.57 | tissue to tissue ratio at 2 h (Tumour/liver ratio): 6.09 | tissue to tissue ratio at 0.5 h (Tumour/muscle ratio): 25.4 | tissue to tissue ratio at 1 h (Tumour/muscle ratio): 56.8 | tissue to tissue ratio at 2 h (Tumour/muscle ratio): 62.2

CC(C)C[C@H](NC(=O)C[C@H](O)[C@H](CC(C)C)NC(=O)[C@H](Cc1c[nH]cn1)NC(=O)CNC(=O)[C@@H](NC(=O)[C@H](C)NC(=O)[C@H](Cc1c[nH]c2ccccc12)NC(=O)[C@H](CCC(N)=O)NC(=O)[C@@H](Cc1ccccc1)NC(=O)CN1CCC(NC(=O)CN2CCN(CC(=O)O)CCN(CC(=O)O)CCN(CC(=O)O)CC2)CC1)C(C)C)C(N)=O (68Ga complex, metal not drawn) [DOTA-RM2, reference compound]
tissue to tissue ratio at 0.5 h (Tumour/blood ratio): 2.35 | tissue to tissue ratio at 1 h (Tumour/blood ratio): 3.88 | tissue to tissue ratio at 2 h (Tumour/blood ratio): 4.58 | tissue to tissue ratio at 0.5 h (Tumour/bone ratio): 11.2 | tissue to tissue ratio at 1 h (Tumour/bone ratio): 8.99 | tissue to tissue ratio at 2 h (Tumour/bone ratio): 8.6 | tissue to tissue ratio at 0.5 h (Tumour/kidneys ratio): 1.53 | tissue to tissue ratio at 1 h (Tumour/kidneys ratio): 1.89 | tissue to tissue ratio at 2 h (Tumour/kidneys ratio): 2.05 | tissue to tissue ratio at 0.5 h (Tumour/liver ratio): 3.19 | tissue to tissue ratio at 1 h (Tumour/liver ratio): 3.4 | tissue to tissue ratio at 2 h (Tumour/liver ratio): 4 | tissue to tissue ratio at 0.5 h (Tumour/muscle ratio): 14.4 | tissue to tissue ratio at 1 h (Tumour/muscle ratio): 21.8 | tissue to tissue ratio at 2 h (Tumour/muscle ratio): 31.7
